Where two headings read alike, the source gives them in different places.
What was measured:
[1] = target: T1, recombinant SARS-CoV-2 RBD with C-terminal AviTag (SARS-CoV-2, UniProt P0DTC2 319-541)
[2] = target: T1, recombinant SARS-CoV-2 RBD with …; remark: listed apart in the source
[3] = target: T1, recombinant SARS-CoV-2 RBD with …; remark: listed apart in the source
[4] = target: SARS-COV-2 Wuhan Reference RBD (SARS-CoV-2, UniProt P0DTC2 319-541); experiment: ELISA, RBD coated
[5] = target: T1, recombinant SARS-CoV-2 RBD with …; experiment: ELISA, competition with coated ACE2-Fc for RBD [Cont. 2]
[6] = target: T1, recombinant SARS-CoV-2 RBD with …; remark: listed apart in the source
[7] = target: T1, recombinant SARS-CoV-2 RBD with …; experiment: ELISA, competition with coated ACE2-Fc for RBD [Cont. 4]
[8] = target: T1, recombinant SARS-CoV-2 RBD with …; experiment: BLI, biotinylated RBD on streptavidin biosensors [Cont. 8]
[9] = target: T1, recombinant SARS-CoV-2 RBD with …; experiment: ELISA, competition with coated ACE2-Fc for RBD [Cont. 8]
[10] = target: T1, recombinant SARS-CoV-2 RBD with …; experiment: ELISA, competition with coated ACE2-Fc for RBD
[11] = target: T1, recombinant SARS-CoV-2 RBD with …; remark: listed apart in the source
[12] = target: T1, recombinant SARS-CoV-2 RBD with …; remark: listed apart in the source

B1: R2B-D5 monomer (PP805) (VHH, not shown: large carriers; small tags and cut ends)
VHH: QVQLVESGGGLVQPGGSLRLSCAASGYADEINMVHWYRQAPGKGREFVAAIASGGSTFYADSVKGRFTISRDNAKNTVYLQMNSLKPEDTAVYYCAAIPRPSLSYAHDYAYWGQGTQVTVSS
Kd [1]: 10 nM
koff [1]: 0.00226 s⁻¹
kon [1]: 226000 M⁻¹ s⁻¹

B2: PP1898 Cerberbody (1-R2B-D5 and 2-S3b-C8) (other, not shown: large carriers; small tags and cut ends)
VHH 1: QVQLVESGGGLVQPGGSLRLSCAASGSIENIERMHWYRQAPGKQRELVAVIDSGGTTRYADSVKGRFTISRDNAKNTVYLQMNSLKPEDTAVYYCAAVWLTNAESTQEYWGQGTQVTVSS
VHH 2: QVQLVESGGGLVQPGGSLRLSCAASGYADEINMVHWYRQAPGKGREFVAAIASGGSTFYADSVKGRFTISRDNAKNTVYLQMNSLKPEDTAVYYCAAIPRPSLSYAHDYAYWGQGTQVTVSS
Kd [2]: 0.4 nM
koff [2]: 0.000218 s⁻¹
kon [2]: 540000 M⁻¹ s⁻¹

B3: MBP-5HVZ-R2D-A6-H6 (VHH, not shown: large carriers; small tags and cut ends)
VHH: QVQLVESGGGLVQPGGSLRLSCAASGSGASIGAMHWFRQAPGKGREWVASITSAGNTYYGDSVKGRFTISRDNAKNTVYLQMNSLKPEDTAVYYCNALAGANYESQWEEYNYWGQGTQVTVSS
IC50 [3]: 6.3 nM
Kd [3]: 19.6 nM

B4: PP1149 MBP-5HVZ-PAPA-R5a-E5-H6 (VHH)
VHH: QVQLVESGGGLVQPGGSLRLSCAASGYDFDILRMAWFRQAPGKEREMVAAITSAESVNYEDSVKGRFTISRDNAKNTVYLQMNSLKPEDTAVYYCATYDYTDDYGYASWGQGTQVTVSS
notes: Form: Dimer
EC50 [4]: 2.5 nM
IC50 [5]: 14.2 nM

B5: MBP-R2C-F6-H6 (VHH, not shown: large carriers; small tags and cut ends)
VHH: QVQLVESGGGLVQPGGSLRLSCAASGRILAANIVHWYRQAPGKEREGVAGITTGGSNYYSDSVKGRFTISRDNAKNTVYLQMNSLKPEDTAVYYCNALGLGSASGSYESWGQGTQVTVSS
Kd [6]: ~3600 nM

B6: MBP-5HVZ-R2E-D2-H6 (VHH, not shown: large carriers; small tags and cut ends)
VHH: QVQLVESGGGLVQPGGSLRLSCAASGHQLSTNATHWFRQAPGKNREFVASIGSGSSSYYADSVKGRFTISRDNAKNTVYLQMNSLKPEDTAVYYCTALGGDELDGMTYDYWGQGTQVTVSS
IC50 [3]: 6.8 nM
Kd [3]: 19.1 nM

B7: PP1152 MBP-5HVZ-PAPA-R5d-B6-H6 (VHH)
VHH: QVQLVESGGGLVQPGGSLRLSCAASGRILAANIVHWYRQAPGKEREGVAGITSGGGSYYADSVKGRFTISRDNAKNTVYLQMNSLKPEDTAVYYCNALGLGQSSLYRSADPYDSWGQGTQVTVSS
notes: Form: Dimer
IC50 [7]: 4.7 nM

B8: PP927 MBP-5HVZ-R1i-C8-H6 (VHH)
VHH: QVQLVESGGGLVQPGGSLRLSCAASGRQFGAWRMHWYRQAPGKQREWVAGITSGTSGNYADSVKGRFTISRDNAKNTVYLQMNSLKPEDTAVYYCAATSHTTYHAEYWGQGTQVTVSS
notes: Form: Dimer
EC50 [4]: 1.43 nM
Kd [8]: 25.2 nM
IC50 [9]: 111 nM

B9: PP1176 MBP-5HVZ-PAPA-R2a-F3-H6 (VHH)
VHH: QVQLVESGGGLVQPGGSLRLSCAASGSITSINWMHWFRQAPGKDREGVASISQTGRGSYADSVKGRFTISRDNAKNTVYLQMNSLKPEDTAVYYCAAASRTGTPYNYWGQGTQVTVSS
notes: Form: Dimer
EC50 [4]: 0.29 nM
IC50 [10]: 10.4 nM

B10: PP931 MBP-5HVZ-R5a-F5-H6 (VHH)
VHH: QVQLVESGGGLVQPGGSLRLSCAASGYHASILAMHWVRQAPGKEREWVASMTWSDMTQYSDSVKGRFTISRDNAKNTVYLQMNSLKPEDTAVYYCAATYVTRDRPWTHWGQGTQVTVSS
notes: Form: Dimer
EC50 [4]: 1.93 nM
Kd [8]: 11.9 nM
IC50 [9]: 5.6 nM

B11: PP1148 MBP-5HVZ-PAPA-R5a-C5-H6 (VHH)
VHH: QVQLVESGGGLVQPGGSLRLSCAASGDIFSINALHWFRQAPGKQREEVAAITSGGSTGYADSVKGRFTISRDNAKNTVYLQMNSLKPEDTAVYYCAAQQARGGLDSDYWGQGTQVTVSS
notes: Form: Dimer
EC50 [4]: 0.3 nM
IC50 [5]: 1.1 nM

B12: PP1136 MBP-4B0F-PAPA-R5a-C5-H6 (VHH)
VHH: QVQLVESGGGLVQPGGSLRLSCAASGDIFSINALHWFRQAPGKQREEVAAITSGGSTGYADSVKGRFTISRDNAKNTVYLQMNSLKPEDTAVYYCAAQQARGGLDSDYWGQGTQVTVSS
notes: Form: Heptamer
IC50 [5]: 1.8 nM

B13: PP1160 MPB-scTRP-PAPA-R5a-C5-H6 (VHH)
VHH: QVQLVESGGGLVQPGGSLRLSCAASGDIFSINALHWFRQAPGKQREEVAAITSGGSTGYADSVKGRFTISRDNAKNTVYLQMNSLKPEDTAVYYCAAQQARGGLDSDYWGQGTQVTVSS
notes: Form: Trimer
IC50 [5]: 2.9 nM

B14: MBP-R2C-G6-H6 (VHH, not shown: large carriers; small tags and cut ends)
VHH: QVQLVESGGGLVQPGGSLRLSCAASGSIYKYSDVHWFRQAPGKAREAVALLTGAGTTIYGDSVKGRFTISRDNAKNTVYLQMNSLKPEDTAVYYCAAGQGFKATRTFDSWGQGTQVTVSS
Kd [3]: ~3900 nM

B15: PP1896 Cerberbody (2-R2B-D5 and 1-S3b-C8) (other, not shown: large carriers)
chain 1: QVQLVESGGGLVQPGGSLRLSCAASGYADEINMVHWYRQAPGKGREFVAAIASGGSTFYADSVKGRFTISRDNAKNTVYLQMNSLKPEDTAVYYCAAIPRPSLSYAHDYAYWGQGTQVTVSSHHHHHH
chain 2: QVQLVESGGGLVQPGGSLRLSCAASGSIENIERMHWYRQAPGKQRELVAVIDSGGTTRYADSVKGRFTISRDNAKNTVYLQMNSLKPEDTAVYYCAAVWLTNAESTQEYWGQGTQVTVSSTVILEYAHRLSQDILSDALQQWASHHHHHHHH
Kd [11]: < 0.001 nM
koff [11]: < 1e-07 s⁻¹
kon [11]: 248000 M⁻¹ s⁻¹

B16: PP1897 Cerberbody (3-S3b-C8) (other, not shown: large carriers)
chain 1: QVQLVESGGGLVQPGGSLRLSCAASGSIENIERMHWYRQAPGKQRELVAVIDSGGTTRYADSVKGRFTISRDNAKNTVYLQMNSLKPEDTAVYYCAAVWLTNAESTQEYWGQGTQVTVSSHHHHHH
chain 2: QVQLVESGGGLVQPGGSLRLSCAASGSIENIERMHWYRQAPGKQRELVAVIDSGGTTRYADSVKGRFTISRDNAKNTVYLQMNSLKPEDTAVYYCAAVWLTNAESTQEYWGQGTQVTVSSTVILEYAHRLSQDILSDALQQWASHHHHHHHH
Kd [12]: 0.73 nM
koff [12]: 0.000382 s⁻¹
kon [12]: 521000 M⁻¹ s⁻¹

B17: MBp-5HVZ-R2C-B3-H6 (VHH, not shown: large carriers; small tags and cut ends)
VHH: QVQLVESGGGLVQPGGSLRLSCAASGTYASYETIAWYRQAPGKQREKVARITGAGSSFYADSVKGRFTISRDNAKNTVYLQMNSLKPEDTAVYYCNADSIPPALRAANTGYWGQGTQVTVSS
IC50 [6]: 1.4 nM
Kd [6]: 33 nM

B18: PP1151 MBP-5HVZ-PAPA-R5d-B5-H6 (VHH)
VHH: QVQLVESGGGLVQPGGSLRLSCAASGSRDSIVAMHWYRQAPGKGREGVAGITSRWVTYYADSVKGRFTISRDNAKNTVYLQMNSLKPEDTAVYYCNAPVYYDTEWYDIWGQGTQVTVSS
notes: Form: Dimer
IC50 [7]: 23.1 nM

B19: PP934 MBP-5HVZ-S3a-H2-H6 (VHH)
VHH: QVQLVESGGGLVQPGGSLRLSCAASGAAFSKNALHWFRQAPGKGREWVASITSGSGTQYMDSVKGRFTISRDNAKNTVYLQMNSLKPEDTAVYYCAALAYSGGYDYWGQGTQVTVSS
notes: Form: Dimer
EC50 [4]: 1.07 nM
Kd [8]: 18.4 nM
IC50 [9]: 2.2 nM

B20: MBP-5HVZ-R2A-C5-H6 (VHH, not shown: large carriers; small tags and cut ends)
VHH: QVQLVESGGGLVQPGGSLRLSCAASGTWGNIQYLSWFRQAPGKRREFVAAITPNNGTNYADSVKGRFTISRDNAKNTVYLQMNSLKPEDTAVYYCTAVLWYTTKEGPYDYWGQGTQVTVSS
IC50 [6]: 13.3 nM

Source: patent publication US20240150440A1 (LUMEN BIOSCIENCE, published 2024)
